Changes are numbered by the printed parent chain.
B1: JR310 (antibody, V domains shown)
VH: EVQLVESGGGLIQPGGSLRLSCAASGFTVSSNYMSWVRQAPGKGLEWVSVIYSGGSTYYADSVKGRFTISRDNSKNTLYLQMNSLRAEDTAVYYCARGDPSDYYYYGMDVWGQGTTVTVSS
VL: QSVLTQPPSVSGAPGQRVTISCTGSSSNIGAGYDVHWYQQLPGTAPKLLIYGNSNRPSGVPDRFSGSKSGTSASLAITGLQAEDEADYYCQSYDSSLSGSGVFGTGTKVTVL
B2: JR095 (antibody, V domains shown)
VH: VQLVESGGGVVQPGRSLRLSCAASGFTFSRYAMHWVRQAPGKGLQWVAIISYDGSNKYYADSVKGRFTISRDNSKNTLYLQMNSLRAEDTAVYYCARHITGTDYWGQGTLVTVSS
VL: DIQMTQSPSSLSASVGDRVTITCRASQGISIYLAWFQQKPGKAPKSLIYAASNLQSGVPSKFSGSGSGTDFTLTISSLQPEDFATYYCQQYDSYPITFGQGTRLEIK
B3: JR049 (antibody, V domains shown)
VH: EVQLVESGGGLVQPGGSLRLSCAASGFTFSSYDMHWVRQVTGKGLEWVSGIGTAGDTYYRDSVKGRFTISRENAKKSLYLQMNSLRAGDTAVYYCARDNGALYYYGSGAMDVWGKGTTVTVSS
VL: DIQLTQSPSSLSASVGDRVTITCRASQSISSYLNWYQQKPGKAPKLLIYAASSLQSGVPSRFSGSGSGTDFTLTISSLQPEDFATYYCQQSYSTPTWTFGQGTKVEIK
B4: JR212 (antibody, V domains shown)
VH: QVQLVQSGAEVKKPGSSVKVSCKASGGTFSNYAISWVRQAPGQGLEWMGGIIPLFGTTNYAQKFQGRVTITADESTSTAYMELSSLRSEDTAMYYCASYSSGYHLVTDYWGQGTLVTVSS
VL: EIVLTQSPGTLSLSPGERATLSCRASQSVTSSYLAWYQQKPGQAPRLLIYGASSRATGIPDRFSGSGSGTDFTLTISRLEPEDFAVYYCQQYGTSRTFGQGTKVEIK
B5: JR094 (antibody, V domains shown)
VH: EVQLVQSGAEVKKPGESLKISCKGSGYSFIFYWIGWVRQMPGKGLEWMGIIYPGDSDTRYSPSFQGQVTISADKSISTAYLQWSSLKASDTAMYYCASTVTRSPYDAFDMWGQGTMVTVSS
VL: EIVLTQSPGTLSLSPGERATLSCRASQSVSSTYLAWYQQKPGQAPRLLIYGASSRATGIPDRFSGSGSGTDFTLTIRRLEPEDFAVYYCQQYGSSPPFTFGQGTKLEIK
B6: JR090 (antibody, V domains shown)
VH: QVQLQQWGAGLLKPSETLSRTCAVYGGSFSGHYWSWIRQPPGKGLEWIGEINHSGSTNYNPSLKSRVTISVDTSKNQFSLKLSSVTAADTAVYYCARGSRAVAGTAVYFDLWGRGTLVTVSS
VL: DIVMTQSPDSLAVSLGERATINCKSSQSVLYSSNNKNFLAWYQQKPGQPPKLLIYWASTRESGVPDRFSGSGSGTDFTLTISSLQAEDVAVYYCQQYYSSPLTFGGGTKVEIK
B7: JR210 (antibody, V domains shown)
VH: EVQLVESGGGLVQPGGSLRLSCAASGFTFSNYWMTWVRQAPGKGLEWVANIKQDGSEKYYVDSVKGRFTISRDNAKNSLYLQMNSLRAEDTAVYYCARDLAVAISWFDPWGQGTLVTVSS
VL: NFMLTQPHSVSESPGKTVTMSCTRSSGSIASNYVQWYQQRPGSSPTTVIYEDNQRPSGVPDRFSGSIDSSSNSASLTISGLKTEDEADYYCHSYDSPRVVFGGGTKLTVL
B8: JR092 (antibody, V domains shown)
VH: QVQLVESGGGLVKPGGSLRLSCAASGFTFSDYYMSWIRQAPGKGLEWVSYSSSRGSIIHYADSVKGRFTISRDNAKNSLCLQMNSLRAEDTAVYYCARATTPYSGYSMWGQGTLVTVSS
VL: B7 VL with M20I, R24G, S44A, H92Q, P97S, R98N, V99W
B9: JR093 (antibody, V domains shown)
VH: QVQLVQSGAEVKKPGSSVKVSCKASGGTFSSYAISWVRQAPGQGLEWMGRIVPILNIANYAQRFQGRVTITADKSTSTAYMELSSLRSEDTAVYYCASPGSLLLGERIDELQFDYWGQGTLVTVSS
VL: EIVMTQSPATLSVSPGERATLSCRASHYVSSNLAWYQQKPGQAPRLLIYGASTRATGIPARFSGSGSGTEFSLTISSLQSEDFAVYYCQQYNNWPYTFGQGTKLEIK

What was measured:
[1] = target: T1, SARS-CoV-2 Wuhan-Hu-1 RBD (SARS-CoV-2, Wuhan-Hu-1 (GenBank …, UniProt P0DTC2)); assay: BLI; details: both partners purified
[2] = target: T1, SARS-CoV-2 Wuhan-Hu-1 RBD; assay: cell-based or functional assay

| Binder | binding result [1] | neutralisation IC50, Wuhan-Hu-1 pseudovirus [2] |
| --- | --- | --- |
| B1 | binds | 0.219 µg/mL |
| B2 | binds | > 1 µg/mL |
| B3 | binds | > 1 µg/mL |
| B4 | binds | 0.178 µg/mL |
| B5 | binds | > 1 µg/mL |
| B6 | binds | > 1 µg/mL |
| B7 | binds | 0.0897 µg/mL |
| B8 | binds | 0.109 µg/mL |
| B9 | binds | 0.131 µg/mL |

Source: paper PMC9253517 (The Journal of Experimental Medicine, 2022)
